Reference: PMC7916210, “Identification of Novel phoP-phoQ Regulated Genes that Contribute to Polymyxin B Tolerance in Pseudomonas aeruginosa”

B1: PPA14_50740 promoter probe (dsDNA)
DNA 1: AATCGATTCAGCAATGGTACAGGTTCGTTCAGTTTCGACCGAACCCTCCCGCTTTCATCG
DNA 2: CGATGAAAGCGGGAGGGTTCGGTCGAAACTGAACGAACCTGTACCATTGCTGAATCGATT
B2: PPA14_11970 promoter probe (dsDNA)
DNA 1: TGTCTTTGTAACAGGAAATCCTCGATGTTCAGTCCGAAACCGAGCTGCGCGCCCCAGTTG
DNA 2: CAACTGGGGCGCGCAGCTCGGTTTCGGACTGAACATCGAGGATTTCCTGTTACAAAGACA
B3: PPA14_46900 promoter probe (dsDNA)
DNA 1: GGTTCGTTCAGAAATTGTTCAGGCTTCGTTCAGGCCCGATTCAGGCCGGGTTCAGCAGAA
DNA 2: TTCTGCTGAACCCGGCCTGAATCGGGCCTGAACGAAGCCTGAACAATTTCTGAACGAACC
B4: PPA14_52350 promoter probe (dsDNA)
DNA 1: CATTTGCTGGTGTTCGTTCAGCGATGGTTCAGCTTGCCGTGGGCATAGTGGCGGCTTGCA
DNA 2: TGCAAGCCGCCACTATGCCCACGGCAAGCTGAACCATCGCTGAACGAACACCAGCAAATG

target: PhoP-His (UniProt A0A0H2Z7U0 1-225); experiment: EMSA; PhoP 0, 2, 4 or 8 uM; details: protein: recombinant; tags: C-terminal 6xHis; chain copies: 2; blunt

Binder	binding result
B1	binds
B2	binds
B3	binds
B4	binds
